Reference: the supplement of paper PMC10724198
± gives the standard deviation of the averaged measurements.

Experiments:
Test in all cases: protein stability index of tFT-peptide fusion (C-terminal peptide) (PSI (0-1 scale)); higher = more stable (slower turnover)
[1] = system: Saccharomyces cerevisiae; details: temperature: 30 C
Description: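 MPS profiling in S. cerevisiae of the yeast C-terminome library: the last 12 aa of each annotated ORF are fused to the C-terminus of a sfGFP-mCherry timer, after a GGGS linker. Cells are FACS-sorted into 8 mCherry/sfGFP bins and deep-sequenced. PSI runs from 0 (unstable) to 1 (stable); wild type and das1Δ backgrounds, two technical replicates each.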

[2] = system: Saccharomyces cerevisiae
Description: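 MPS profiling in S. cerevisiae of the tFT-X12 degron library: putative degron peptides plus stable controls, 12 aa, fused to the C-terminus of a sfGFP-mCherry timer. Cells are FACS-sorted into 8 mCherry/sfGFP bins and deep-sequenced. PSI runs from 0 (unstable) to 1 (stable). Backgrounds are wild type, das1Δ and doa10Δ at 30 °C, and wild type, das1Δ, cdc34-1 and cdc53-1 at 37 °C; 2-3 technical replicates each.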

[3] = system: Saccharomyces cerevisiae; details: genetic background: wild type; temperature: 30 C
[4] = genetic background: das1 deletion
[5] = genetic background: cdc34-1, temperature: 37 C
[6] = genetic background: cdc53-1, temperature: 37 C
[7] = genetic background: das1 deletion, temperature: 30 C
[8] = genetic background: das1 deletion, temperature: 37 C
[9] = genetic background: doa10 deletion, temperature: 30 C
[10] = genetic background: wild type, temperature: 30 C
[11] = genetic background: wild type, temperature: 37 C

| Sequence | protein stability index [1, 4] | protein stability index ([1]; genetic background: wild type) | protein stability index [2, 5] | protein stability index [2, 6] | protein stability index [2, 7] | protein stability index [2, 8] | protein stability index [2, 9] | protein stability index [2, 10] | protein stability index [2, 11] | protein stability index [3] |
| --- | --- | --- | --- | --- | --- | --- | --- | --- | --- | --- |
| ADIMEKVHKWFA [PSE1 C-terminal 12 aa] | 0.68931 ± 0.00046 | 0.6649 ± 0.0041 |  |  |  |  |  |  |  |  |
| ADKELSFEINVK [BRR2 C-terminal 12 aa] | 0.6946 ± 0.003 | 0.741 ± 0.066 |  |  |  |  |  |  |  |  |
| AFSDLSTLENAS [ATG42 C-terminal 12 aa] | 0.7267 ± 0.001 | 0.723 ± 0.03 |  |  |  |  |  |  |  |  |
| AFTRRRFMNKSL [ARC18 C-terminal 12 aa] | 0.69 ± 0.012 | 0.485 ± 0.034 |  |  |  |  |  |  |  |  |
| AGIHPDRAKLLK [NOP6 C-terminal 12 aa] | 0.68 ± 0.013 | 0.6934 ± 0.0056 |  |  |  |  |  |  |  |  |
| AGTENDEEEFNI [PSF2 C-terminal 12 aa] | 0.674 ± 0.018 | 0.672 ± 0.044 |  |  |  |  |  |  |  |  |
| AINYIGNIRRNE [ACO2 C-terminal 12 aa] | 0.7288 ± 0.0043 | 0.727 ± 0.048 |  |  |  |  |  |  |  |  |
| AIRTRKFDNNKR [RED1 C-terminal 12 aa] | 0.716 ± 0.046 | 0.6648 ± 0.0027 |  |  |  |  |  |  |  |  |
| AIWIFYIDFRVH [YCL021W-A C-terminal 12 aa] | 0.227 ± 0.024 | 0.201 ± 0.011 |  |  |  |  |  |  |  |  |
| AKDAFTSTLPTH [GFD2 C-terminal 12 aa] | 0.7 ± 0.017 | 0.716 ± 0.021 |  |  |  |  |  |  |  |  |
| AKDYLLDLAGQA [YBR085C-A C-terminal 12 aa] | 0.71316 ± 0.00065 | 0.659 ± 0.012 |  |  |  |  |  |  |  |  |
| AKLSEGTSFRRK [RPS27A C-terminal 12 aa] | 0.6952 ± 0.0023 | 0.681 ± 0.037 |  |  |  |  |  |  |  |  |
| AKNARPSKKRKF [DBP10 C-terminal 12 aa] | 0.752 ± 0.025 | 0.6782 ± 0.0047 |  |  |  |  |  |  |  |  |
| AKPKYEKILIDN [RTC2 C-terminal 12 aa] | 0.703 ± 0.011 | 0.666 ± 0.035 |  |  |  |  |  |  |  |  |
| AKRDILPSPVSV [LPP1 C-terminal 12 aa] | 0.6165 ± 0.005 | 0.646 ± 0.04 |  |  |  |  |  |  |  |  |
| ALKHGEKAFNIN [NEM1 C-terminal 12 aa] | 0.678 ± 0.017 | 0.6766 ± 0.0023 |  |  |  |  |  |  |  |  |
| ALLDGFVTAAGY [DAK2 C-terminal 12 aa] | 0.745 ± 0.027 | 0.728 ± 0.016 |  |  |  |  |  |  |  |  |
| AMLKPSSKEGSP [COQ10 C-terminal 12 aa] | 0.6955 ± 0.0028 | 0.718 ± 0.0063 |  |  |  |  |  |  |  |  |
| ANESLEEDLNLD [YBR137W C-terminal 12 aa] | 0.698 ± 0.031 | 0.661 ± 0.025 |  |  |  |  |  |  |  |  |
| ANKNDAISKKVE [ATG23 C-terminal 12 aa] | 0.69 ± 0.017 | 0.763 ± 0.077 |  |  |  |  |  |  |  |  |
| AQQNYRLWLSSV [ATG41 C-terminal 12 aa] | 0.682 ± 0.016 | 0.3264 ± 0.0023 |  |  |  |  |  |  |  |  |
| ARLLRFWDHIIR [SHU1 C-terminal 12 aa] | 0.728 ± 0.016 | 0.686 ± 0.06 |  |  |  |  |  |  |  |  |

| Sequence | protein stability index [1, 4] | protein stability index ([1]; genetic background: wild type) | protein stability index [2, 5] | protein stability index [2, 6] | protein stability index [2, 7] | protein stability index [2, 8] | protein stability index [2, 9] | protein stability index [2, 10] | protein stability index [2, 11] | protein stability index [3] |
| --- | --- | --- | --- | --- | --- | --- | --- | --- | --- | --- |
| VVLGLFCVRMGT |  |  | 0.541 ± 0.018 | 0.606 ± 0.019 | 0.454 ± 0.031 | 0.6108 ± 0.0044 | 0.418 ± 0.01 | 0.451 ± 0.02 | 0.5718 ± 0.0034 | 0.522 ± 0.031 |
| VVLVGVAVCRLG |  |  | 0.4 ± 0.0065 | 0.47 ± 0.013 | 0.29 ± 0.025 | 0.4888 ± 0.0021 | 0.244 ± 0.01 | 0.277 ± 0.014 | 0.46 ± 0.0018 | 0.368 ± 0.011 |
| VVNFLVFRFFCI |  |  | 0.53 ± 0.046 | 0.531 ± 0.015 | 0.481 ± 0.029 | 0.649 ± 0.026 | 0.216 ± 0.016 | 0.217 ± 0.037 | 0.39 ± 0.018 | 0.285 ± 0.06 |
| VVPYPFLTLLNI |  |  | 0.417 ± 0.026 | 0.407 ± 0.029 | 0.403 ± 0.041 | 0.539 ± 0.014 | 0.589 ± 0.033 | 0.381 ± 0.012 | 0.492 ± 0.0084 | 0.58 ± 0.12 |
| VVRVSFSFCLSC |  |  | 0.476 ± 0.023 | 0.498 ± 0.045 | 0.48 ± 0.029 | 0.459 ± 0.021 | 0.408 ± 0.026 | 0.388 ± 0.029 | 0.425 ± 0.024 | 0.373 ± 0.015 |
| VVSVVVLVNSRG |  |  | 0.465 ± 0.029 | 0.501 ± 0.067 | 0.36 ± 0.023 | 0.5405 ± 0.0032 | 0.3414 ± 0.0024 | 0.373 ± 0.024 | 0.518 ± 0.0064 | 0.441 ± 0.017 |
| VVVLLLVVWFCL |  |  | 0.29 ± 0.014 | 0.4134 ± 0.0018 | 0.316 ± 0.027 | 0.428 ± 0.027 | 0.283 ± 0.0079 | 0.296 ± 0.025 | 0.391 ± 0.019 | 0.379 ± 0.04 |
| VVVWLFRIKSNV |  |  | 0.46 ± 0.012 | 0.586 ± 0.0096 | 0.358 ± 0.059 | 0.576 ± 0.005 | 0.279 ± 0.0084 | 0.318 ± 0.022 | 0.497 ± 0.026 | 0.425 ± 0.025 |
| VWGLWRLCVWGV |  |  | 0.3896 ± 0.0011 | 0.479 ± 0.0054 | 0.327 ± 0.036 | 0.5012 ± 0.0017 | 0.274 ± 0.0082 | 0.302 ± 0.025 | 0.477 ± 0.0086 | 0.371 ± 0.057 |
| VWLFSWSVVGGT |  |  | 0.436 ± 0.037 | 0.5425 ± 0.0026 | 0.369 ± 0.017 | 0.523 ± 0.012 | 0.369 ± 0.014 | 0.376 ± 0.0048 | 0.5069 ± 0.00074 | 0.433 ± 0.02 |
| VWSVSVTIVGRR |  |  | 0.5289 ± 0.0013 | 0.573 ± 0.035 | 0.423 ± 0.037 | 0.528 ± 0.017 | 0.439 ± 0.032 | 0.455 ± 0.0093 | 0.507 ± 0.0052 | 0.458 ± 0.011 |
| VYFASCVVLLMV |  |  | 0.159 ± 0.028 | 0.188 ± 0.025 | 0.194 ± 0.029 | 0.3194 ± 0.0019 | 0.159 ± 0.0018 | 0.174 ± 0.017 | 0.251 ± 0.015 | 0.264 ± 0.029 |
| VYLVVLYLRYFA |  |  | 0.205 ± 0.031 | 0.22 ± 0.011 | 0.192 ± 0.038 | 0.359 ± 0.023 | 0.173 ± 0.0089 | 0.174 ± 0.016 | 0.306 ± 0.023 | 0.227 ± 0.037 |
| VYVYTIRVRWSE |  |  | 0.135 ± 0.024 | 0.274 ± 0.039 | 0.197 ± 0.013 | 0.289 ± 0.023 | 0.164 ± 0.021 | 0.184 ± 0.027 | 0.269 ± 0.03 | 0.277 ± 0.015 |
| WAFVVCGAVFFW |  |  | 0.264 ± 0.025 | 0.358 ± 0.031 | 0.299 ± 0.014 | 0.466 ± 0.005 | 0.289 ± 0.024 | 0.282 ± 0.036 | 0.412 ± 0.022 | 0.358 ± 0.019 |
| WCLLGVPVRVVV |  |  | 0.373 ± 0.014 | 0.391 ± 0.056 | 0.307 ± 0.042 | 0.462 ± 0.0047 | 0.253 ± 0.0041 | 0.288 ± 0.042 | 0.441 ± 0.0045 | 0.425 ± 0.033 |
| WCVCVSMRMIAI |  |  | 0.15 ± 0.015 | 0.193 ± 0.008 | 0.201 ± 0.011 | 0.175 ± 0.013 | 0.202 ± 0.0073 | 0.187 ± 0.002 | 0.159 ± 0.013 | 0.165 ± 0.0094 |
| WFIFATFLILVT |  |  | 0.0797 ± 0.0056 | 0.112 ± 0.0058 | 0.136 ± 0.032 | 0.2121 ± 0.001 | 0.154 ± 0.014 | 0.121 ± 0.0082 | 0.182 ± 0.012 | 0.193 ± 0.051 |
| WFLVLLFFWFLL |  |  | 0.524 ± 0.0097 | 0.628 ± 0.055 | 0.541 ± 0.0066 | 0.618 ± 0.028 | 0.55 ± 0.036 | 0.533 ± 0.022 | 0.566 ± 0.0068 | 0.48 ± 0.073 |
| WFYLLFVLFGLV |  |  | 0.56 ± 0.026 | 0.614 ± 0.012 | 0.438 ± 0.033 | 0.542 ± 0.0065 | 0.409 ± 0.027 | 0.417 ± 0.017 | 0.51 ± 0.024 | 0.426 ± 0.023 |
| WHFPCPPLPCPV |  |  | 0.4132 ± 0.0036 | 0.42896 ± 0.0003 | 0.325 ± 0.031 | 0.484 ± 0.0032 | 0.298 ± 0.0082 | 0.347 ± 0.035 | 0.4714 ± 0.0025 | 0.4846 ± 0.0013 |
| WILLVLACFSSG |  |  | 0.25 ± 0.0033 | 0.335 ± 0.051 | 0.272 ± 0.036 | 0.40822 ± 2.1e-05 | 0.215 ± 0.011 | 0.249 ± 0.034 | 0.361 ± 0.017 | 0.325 ± 0.0036 |
